According to patent US20220315655A1 (NOVIMMUNE, published 2022):

T1: recombinant mouse CD47 soluble protein (mouse, UniProt Q61735 19-140, limits assumed)
T1 sequence (looked up): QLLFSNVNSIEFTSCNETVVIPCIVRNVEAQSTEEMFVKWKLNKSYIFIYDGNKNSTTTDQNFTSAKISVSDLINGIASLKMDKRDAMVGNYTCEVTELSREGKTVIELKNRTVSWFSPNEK


Tests used:
[1] = target: T2, human PD-L1 on cells (hPD-L1-transfected CHO cells; IFNg-induced HT-1080 tumor cells) (human, UniProt Q9NZQ7 19-290); test: cell-based competition: hPD-1-moFc binding to IFNg-induced PD-L1+CD47+ HT-1080 cells, CellInsight imaging
T2 construct: whole, on cells; The CHO transfectants are negative for human CD47; HT-1080 cells also carry CD47; also called PD-L1+CD47+ HT-1080

[2] = target: T3, recombinant cynomolgus monkey PD-L1 soluble protein (cynomolgus monkey, UniProt G7PSE7 19-238, biotinylated); test: BLI (OctetRED96), biotinylated PD-L1 on streptavidin biosensors, bsAb in solution, 1:1 global fit, 30 C
T3 construct: ELISA and BLI used proteins from different suppliers; They are kept as one molecule because no limits are stated; also called cyno PD-L1; cynomolgus PD-L1

[3] = target: T4, recombinant mouse PD-L1 soluble protein (mouse, UniProt Q9EP73 19-238, limits assumed, biotinylated); test: as above
T4 construct: ELISA and BLI used proteins from different sources; They are kept as one molecule because no limits are stated

[4] = target: T5, recombinant human PD-L1 soluble protein (human, UniProt Q9NZQ7 19-238, biotinylated); test: as above
T5 construct: Bought soluble protein; also called hPD-L1; B7-H1

[5] = target: T6, recombinant human CD47 soluble protein (human, UniProt Q08722 19-139); test: BLI (OctetRED96), His-tag CD47 on HIS1K biosensors, bsAb in solution, 1:1 global fit, 30 C
T6 construct: ELISA and BLI used different preparations; They are kept as one molecule because no limits are stated; also called His-tag human CD47

[6] = target: T1, recombinant mouse CD47 soluble protein; test: statement in the xenograft example; assay not named
[7] = target: human CD47 on cells (Raji, Nalm-6, HT-1080 tumor cells; human red blood cells) (human, UniProt Q08722 19-323); test: cell-based or functional assay
[8] = target: T4, recombinant mouse PD-L1 soluble protein; test: statement in the xenograft example; assay not named
[9] = target: T7, recombinant cynomolgus monkey CD47 soluble protein (cynomolgus monkey, UniProt A0A2K5X523 19-139); test: BLI (OctetRED96); set-up for cynomolgus CD47 not described
T7 construct: also called cyno CD47; cynomolgus CD47

IC50 [1] | Kd [2] | Kd [3] | Kd [4] | Kd [5] | binding result [6] | in vitro phagocytosis potency (ADCP of Nalm-6 cells), macrophage donor D#096 [7] | in vitro phagocytosis potency (ADCP of Nalm-6 cells), macrophage donor D#097 [7] | in vitro phagocytosis potency (ADCP of Nalm-6 cells), macrophage donor D#103 [7] | binding result [8] | Kd [9] | Binder
0.00252 nM |  |  |  |  |  |  |  |  |  |  | S79 anti-PD-L1 mAb (antibody, human IgG4 S228P, lambda, V domains shown, Bivalent monospecific anti-PD-L1 antibody with the common heavy chain and the S79 lambda light chain; also called S79 mAb; S79_Sc3_1G7_VLCL2 aPDL1 IGLV2-23) VH: not shown VL: QSALTQPASVSGSPGQSITISCTGTSSDVFRPPLVSWYQQHPGKAPKLMIYFASLRPSGVSNRFSGSKSGNTASLTISGLQAEDEADYYCSSWDHTGDGHVFGGGTKLTVLG
0.00219 nM | 1.35 nM | 0.52 nM | 0.5 nM | 56 nM | no binding | 29.2 | 16 | 7.5 |  |  | K33xS79 CD47xPD-L1 bispecific antibody (bispecific antibody, human IgG4 S228P, kappa, lambda, also called K33xS79 bsAb) heavy: not shown light 1: DIQMTQSPSSLSASVGDRVTITCRASQSISSYLNWYQQKPGKAPKLLIYAASSLQSGVPSRFSGSGSGTDFTLTISSLQPEDFATYYCQQFHKRSPQKFGQGTKVEIKRTVAAPSVFIFPPSDEQLKSGTASVVCLLNNFYPREAKVQWKVDNALQSGNSQESVTEQDSKDSTYSLSSTLTLSKADYEKHKVYACEVTHQGLSSPVTKSFNRGEC light 2: QSALTQPASVSGSPGQSITISCTGTSSDVFRPPLVSWYQQHPGKAPKLMIYFASLRPSGVSNRFSGSKSGNTASLTISGLQAEDEADYYCSSWDHTGDGHVFGGGTKLTVLGQPKAAPSVTLFPPSSEELQANKATLVCLISDFYPGAVTVAWKADSSPVKAGVETTTPSKQSNNKYAASSYLSLTPEQWKSHRSYSCQVTHEGSTVEKTVAPTECS
0.00351 nM |  |  |  | 99 nM | no binding | 99.2 | 94 | 23.5 | binds |  | K106xS79 CD47xPD-L1 bispecific antibody (bispecific antibody, human IgG4 S228P, kappa, lambda, also called K106xS79 bsAb) heavy: not shown light 1: not shown light 2: QSALTQPASVSGSPGQSITISCTGTSSDVFRPPLVSWYQQHPGKAPKLMIYFASLRPSGVSNRFSGSKSGNTASLTISGLQAEDEADYYCSSWDHTGDGHVFGGGTKLTVLGQPKAAPSVTLFPPSSEELQANKATLVCLISDFYPGAVTVAWKADSSPVKAGVETTTPSKQSNNKYAASSYLSLTPEQWKSHRSYSCQVTHEGSTVEKTVAPTECS
0.00083 nM |  |  |  | 13.6 nM | no binding | 5.6 | 5 | 3.2 | binds | 16 nM | K38xS79 CD47xPD-L1 bispecific antibody (bispecific antibody, human IgG4 S228P, kappa, lambda, also called K38xS79 bsAb; K38S79) heavy: not shown light 1: DIQMTQSPSSLSASVGDRVTITCRASQVIANWLNWYQQKPGKAPKLLIYAGSHLQSGVPSRFSGSGSGTDFTLTISSLQPEDFATYYCQQMHPRAPKTFGQGTKVEIKRTVAAPSVFIFPPSDEQLKSGTASVVCLLNNFYPREAKVQWKVDNALQSGNSQESVTEQDSKDSTYSLSSTLTLSKADYEKHKVYACEVTHQGLSSPVTKSFNRGEC light 2: QSALTQPASVSGSPGQSITISCTGTSSDVFRPPLVSWYQQHPGKAPKLMIYFASLRPSGVSNRFSGSKSGNTASLTISGLQAEDEADYYCSSWDHTGDGHVFGGGTKLTVLGQPKAAPSVTLFPPSSEELQANKATLVCLISDFYPGAVTVAWKADSSPVKAGVETTTPSKQSNNKYAASSYLSLTPEQWKSHRSYSCQVTHEGSTVEKTVAPTECS
 |  |  |  |  | no binding |  |  |  | no binding |  | K38xS28 CD47xPD-L1 bispecific antibody (bispecific antibody, human IgG4 S228P, kappa, lambda, also called K38xS28 bsAb) heavy: not shown light 1: DIQMTQSPSSLSASVGDRVTITCRASQVIANWLNWYQQKPGKAPKLLIYAGSHLQSGVPSRFSGSGSGTDFTLTISSLQPEDFATYYCQQMHPRAPKTFGQGTKVEIKRTVAAPSVFIFPPSDEQLKSGTASVVCLLNNFYPREAKVQWKVDNALQSGNSQESVTEQDSKDSTYSLSSTLTLSKADYEKHKVYACEVTHQGLSSPVTKSFNRGEC light 2: not shown
